Key:
[1] = molecular target: T1, single chain CD94/NKG2A-Fc (CD94/NKG2A-IgG1 fusion polypeptide) (human); assay: indirect ELISA, coated CD94/NKG2A-Fc
T1 construct: Biotinylated in the panning and BLItz experiments; also called CD94/NKG2A polypeptide; recombinant CD94/NKG2A polypeptide; not shown: human IgG1 Fc
Description: (§1) Binding and specificity of Fab or IgG to single chain CD94/NKG2A-Fc or single chain CD94/NKG2C-Fc were analyzed through indirect ELISA. Briefly, Fc-fused proteins were coated on a 96 well plate (Corning, 3690) at 200 ng/well (50 μL volume) in PBS for 2 hours at room temperature. Blocking was carried out with 3% BSA in PBS for overnight at 4° C. Next day, various concentration of Fab or IgG was applied to antigen coated plates and incubated for 1 hour at 25° C. After three times washing, anti-FLAG mouse antibody (M2 clone)-HRP conjugated (Sigma, A8592, 1:3000 dilution) or anti-human kappa goat antibody-HRP conjugated (Invitrogen, A18853, 1:3000 dilution) was applied to detect binding of either Fab or IgG. Same volume of TMB (Thermo, PI34028) was added as a substrate, and then enzymatic reactions were stopped by adding of 2N […].

[2] = molecular target: T2, single chain CD94/NKG2C-Fc (human); assay: indirect ELISA, coated CD94/NKG2C-Fc
T2 construct: also called CD94/NKG2C polypeptide; single chain CD94/NKG2C polypeptide; not shown: Fc
T2 sequence (chain, as listed by the source): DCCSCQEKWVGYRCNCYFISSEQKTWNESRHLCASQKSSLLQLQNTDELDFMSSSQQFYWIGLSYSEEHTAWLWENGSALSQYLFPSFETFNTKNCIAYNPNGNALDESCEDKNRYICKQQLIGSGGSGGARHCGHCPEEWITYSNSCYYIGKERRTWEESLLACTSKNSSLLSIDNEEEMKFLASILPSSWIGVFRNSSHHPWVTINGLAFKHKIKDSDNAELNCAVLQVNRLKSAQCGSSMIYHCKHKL
Description: as §1

[3] = molecular target: T1, single chain CD94/NKG2A-Fc …; assay: BLItz biolayer interferometry
[4] = molecular target: T3, CD94/NKG2A on the surface of primary human NK cells (human, UniProt Q13241 1-179; P26715 1-233); assay: flow cytometry on primary NK cells, 10 nM antibody
T3 construct: Endogenous receptor on primary NK cells enriched from normal human PBMCs; also called intact NKG2A receptor on the surface of NK cell; cell surface NKG2A
T3 sequence (Q13241 whole entry, chain 1 of 2): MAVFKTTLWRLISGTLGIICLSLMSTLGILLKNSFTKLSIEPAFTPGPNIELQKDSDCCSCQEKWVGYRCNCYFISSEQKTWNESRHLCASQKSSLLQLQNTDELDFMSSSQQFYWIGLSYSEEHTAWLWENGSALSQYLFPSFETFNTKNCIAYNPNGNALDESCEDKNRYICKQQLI
T3 sequence (P26715 whole entry, chain 2 of 2): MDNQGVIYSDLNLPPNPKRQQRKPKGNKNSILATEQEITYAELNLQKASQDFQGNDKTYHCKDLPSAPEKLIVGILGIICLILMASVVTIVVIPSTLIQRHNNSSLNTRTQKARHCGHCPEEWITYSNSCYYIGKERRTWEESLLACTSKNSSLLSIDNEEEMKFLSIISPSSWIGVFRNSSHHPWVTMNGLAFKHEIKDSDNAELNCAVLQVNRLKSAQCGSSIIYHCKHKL
Description: For investigation of NKG2A expression level of NK cells, enriched NK cells were activated with 50 IU/mL of hIL-2 and treated with the indicated antibodies (100 nM) for 24 hours at 37° C. After incubation with antibodies, cells were washed with cold PBS, and then the cell surface NKG2A was detected using a FITC- or PE-conjugated anti-human CD159a (NKG2A) antibody.

T1 sequence (chain, as listed by the source): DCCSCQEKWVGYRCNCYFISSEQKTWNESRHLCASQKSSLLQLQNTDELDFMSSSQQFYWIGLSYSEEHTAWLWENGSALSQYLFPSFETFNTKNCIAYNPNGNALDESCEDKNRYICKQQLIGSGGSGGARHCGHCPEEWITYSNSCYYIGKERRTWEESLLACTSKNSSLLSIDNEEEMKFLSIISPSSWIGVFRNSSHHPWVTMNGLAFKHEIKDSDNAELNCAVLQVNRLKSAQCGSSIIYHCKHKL

Binder	EC50 [1] [nM]	binding result [2]	Kd [3] [nM]	binding result [4]
Fab Clone #1 (1B2) (Fab, V domains shown, Fab from a phage library, expressed in E. coli and purified on Ni-NTA; detected in ELISA with an anti-FLAG antibody) VH: QVQLVESGGGLVKPGGSLRLSCAASGFTFSDYYMSWIRQAPGKGLEWVSYISSSGSTIYYADSVKGRFTISRDNAKNSLYLQMNSLRAEDTAVYYCARGFYMDAWGKGTTVTVSS VL: DIQMTQSPSSLSASVGDRVTITCRASQSISSYLNWYQQKPGKAPKLLIYAASSLQSGVPSRFSGSGSGTDFTLTISSLQPEDFGVYYCQYYGISPPFTFGPGTKVDIKR	2.7	no binding		
IgG Clone #1 (1B2, IgG1-LALA-PG) (antibody, V domains shown, Human IgG1 format with L234A, L235A and P329G (LALA-PG / AAG) in the Fc; Light chain detected with an anti-human kappa antibody; also called Clone #1 IgG; 1B2 (IgG Clone #1)) VH: QVQLVESGGGLVKPGGSLRLSCAASGFTFSDYYMSWIRQAPGKGLEWVSYISSSGSTIYYADSVKGRFTISRDNAKNSLYLQMNSLRAEDTAVYYCARGFYMDAWGKGTTVTVSS VL: DIQMTQSPSSLSASVGDRVTITCRASQSISSYLNWYQQKPGKAPKLLIYAASSLQSGVPSRFSGSGSGTDFTLTISSLQPEDFGVYYCQYYGISPPFTFGPGTKVDIKR			1.1	binds
IgG Clone #2 (1B2-6, IgG1-LALA-PG) (antibody, V domains shown, Human IgG1 format with L234A, L235A and P329G; also called Clone #2 IgG (anti-NKG2A)) VH: EVQLVESGGGLVKPGGSLRLSCAASGFTFSGYYMSWIRQAPGKGLEWLAYISNSGRTIYYADSVKGRFTISRDNSNSSLYLQMNSLRAEDTAVYYCARGFYMDAWGKGTTVTVSS VL: DIQMTQSPSSLSASVGDRVTITCRASQSISSYLNWYQQKPGKAPKLLIYAASSLQSGVPSRFSGSGSGTDFTLTISSLQPEDFGVYYCQYYGISPPFTFGPGTKVDIKR	0.6	no binding		
